This note sets out measurements from US20170137818, “APTAMER INHIBITING BIOLOGICAL ACTIVITY OF AUTOTAXIN BY BINDING WITH AUTOTAXIN, AND USE THEREOF” (RIBOMIC INC., published 2017).

One series has as its target FGF2 (UniProt P09038 P09038:135-288). The experiment in a line: SPR; specificity control; FGF2 immobilized, aptamer 0.3 uM; solution A. Particulars: tags: PeproTech. Background: In SPR one partner is held on a chip, and binding of the other changes the refractive index at the surface.
Series [1] addresses autotaxin (endogenous, human pooled serum) (Homo sapiens, UniProt Q13822 Q13822:36-863). The experiment in a line: inhibition; LPA production in serum, 1.0 uM.
Series [2] concerns the target T1, autotaxin (ENPP2/NPP2) (Homo sapiens, UniProt Q13822 Q13822:36-863). The experiment in a line: inhibition; NPP2 assay, pNP-TMP, 37 C.
For series [3], the target named is T1, autotaxin (ENPP2/NPP2). The experiment in a line: inhibition; NPP2 assay, 1 mM pNP-TMP, 0.3 nM autotaxin, 37 C.
The target in series [4] is T1, autotaxin (ENPP2/NPP2). The experiment in a line: inhibition; NPP2 assay, 37 C; no SPR binding.
For series [5], the target named is T1, autotaxin (ENPP2/NPP2). The experiment in a line: SPR; not more than 10% of SEQ 12 signal; aptamer 0.3 uM; solution A.

As usually defined, the IC50 is the point on the concentration scale where inhibition reaches its midpoint.

FGF2, sequence (P09038 135-288, one chain of several): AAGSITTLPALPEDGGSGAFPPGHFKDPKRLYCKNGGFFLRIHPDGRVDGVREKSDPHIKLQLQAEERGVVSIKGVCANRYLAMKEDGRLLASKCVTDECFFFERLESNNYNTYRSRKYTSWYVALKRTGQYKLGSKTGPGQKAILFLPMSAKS

B1: 12(48) (ssDNA)
DNA: CCTGGACGGAACCAGAATACTTTTGGTCTCCAGG
modifications: 2'-OMe C7,G9,A14,G15,A19,C20,A32,G33,G34; 5' 40 kDa PEG (GL2-400GS2) via ssH linker, 3' idT
Turning to B1, in the series with FGF2, the binding result is listed as “no binding”. In series [1], the activity turned out to be 92 % inhibition. In the series with autotaxin (ENPP2/NPP2) [2], CCTGGACGGAACCAGAATACTTTTGGTCTCCAGG (ssDNA, 2'-OMe C7,G9,A14,G15,A19,C20,A32,G33,G34; 3' idT) [12(148)] yielded an IC50 of 6.8 nM.

B2: SEQ 8 aptamer (ssDNA)
DNA: GTGGTCTAGCTGTACTCCGAAAGCCGGAACCGTGCCAATGGTCGCTACTTCAGCTCCCCACAGTCAACGAGCTA
In the series with autotaxin (ENPP2/NPP2) [3], B2 yielded an IC50 of 10 nM. With CCTGGACGGAACCAATACTTGGTCTCCAGG (ssDNA) [SEQ 15 aptamer], the IC50 in the series with autotaxin (ENPP2/NPP2) [4] worked out at 990 nM. The binding result in the series with autotaxin (ENPP2/NPP2) [5] was “no binding”.
